What was measured:
[1] = molecular target: T1, recombinant mUHRF1 V2 (mouse); assay: MST; + 100-fold molar excess PI5P
T1 chain: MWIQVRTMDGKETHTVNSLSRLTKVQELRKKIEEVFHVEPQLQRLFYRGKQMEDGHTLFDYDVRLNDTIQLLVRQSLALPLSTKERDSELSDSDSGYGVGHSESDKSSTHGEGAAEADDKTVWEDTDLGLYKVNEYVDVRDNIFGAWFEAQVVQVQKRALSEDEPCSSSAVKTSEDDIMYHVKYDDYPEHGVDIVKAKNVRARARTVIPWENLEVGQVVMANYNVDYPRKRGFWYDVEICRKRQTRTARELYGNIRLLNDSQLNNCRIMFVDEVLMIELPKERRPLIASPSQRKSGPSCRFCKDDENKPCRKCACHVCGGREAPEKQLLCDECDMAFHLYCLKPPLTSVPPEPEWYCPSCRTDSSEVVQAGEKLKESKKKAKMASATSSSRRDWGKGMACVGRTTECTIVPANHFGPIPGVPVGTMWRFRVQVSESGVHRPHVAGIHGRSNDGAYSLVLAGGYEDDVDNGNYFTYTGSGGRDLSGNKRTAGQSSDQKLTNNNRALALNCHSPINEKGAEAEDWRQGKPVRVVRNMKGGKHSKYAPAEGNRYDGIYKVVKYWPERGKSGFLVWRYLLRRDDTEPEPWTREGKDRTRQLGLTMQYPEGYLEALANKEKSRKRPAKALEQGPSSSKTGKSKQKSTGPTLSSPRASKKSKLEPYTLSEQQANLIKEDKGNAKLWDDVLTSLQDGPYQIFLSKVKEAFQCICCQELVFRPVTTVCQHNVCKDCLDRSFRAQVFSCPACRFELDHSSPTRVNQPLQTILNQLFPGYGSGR

[2] = molecular target: T2, recombinant mUHRF1 V1 (mouse, UniProt Q8VDF2 1-782); assay: MST; + 100-fold molar excess PI5P
T2 chain: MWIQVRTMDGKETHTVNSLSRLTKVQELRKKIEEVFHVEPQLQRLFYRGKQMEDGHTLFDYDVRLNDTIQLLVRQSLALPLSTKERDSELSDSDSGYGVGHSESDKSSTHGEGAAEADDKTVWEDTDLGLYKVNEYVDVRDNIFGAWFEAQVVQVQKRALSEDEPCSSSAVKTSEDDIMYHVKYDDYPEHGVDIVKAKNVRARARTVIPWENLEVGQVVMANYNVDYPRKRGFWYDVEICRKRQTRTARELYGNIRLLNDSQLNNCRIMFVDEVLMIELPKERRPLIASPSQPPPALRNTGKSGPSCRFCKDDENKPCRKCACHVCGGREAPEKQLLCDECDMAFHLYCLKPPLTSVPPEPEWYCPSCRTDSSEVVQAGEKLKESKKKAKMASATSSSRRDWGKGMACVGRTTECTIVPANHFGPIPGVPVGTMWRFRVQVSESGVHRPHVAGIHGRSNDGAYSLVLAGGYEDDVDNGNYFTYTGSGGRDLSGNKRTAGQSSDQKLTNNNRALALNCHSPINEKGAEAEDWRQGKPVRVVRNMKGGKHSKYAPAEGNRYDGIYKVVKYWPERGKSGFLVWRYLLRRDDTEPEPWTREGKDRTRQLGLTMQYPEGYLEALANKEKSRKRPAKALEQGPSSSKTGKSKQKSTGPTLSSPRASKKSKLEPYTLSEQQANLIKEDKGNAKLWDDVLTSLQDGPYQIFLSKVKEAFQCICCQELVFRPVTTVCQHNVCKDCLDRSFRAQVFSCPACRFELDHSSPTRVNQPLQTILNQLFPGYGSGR

[3] = molecular target: T3, recombinant hUHRF1 (human, UniProt Q96T88-1 1-793); assay: MST; + 100-fold molar excess PI5P
T3 chain: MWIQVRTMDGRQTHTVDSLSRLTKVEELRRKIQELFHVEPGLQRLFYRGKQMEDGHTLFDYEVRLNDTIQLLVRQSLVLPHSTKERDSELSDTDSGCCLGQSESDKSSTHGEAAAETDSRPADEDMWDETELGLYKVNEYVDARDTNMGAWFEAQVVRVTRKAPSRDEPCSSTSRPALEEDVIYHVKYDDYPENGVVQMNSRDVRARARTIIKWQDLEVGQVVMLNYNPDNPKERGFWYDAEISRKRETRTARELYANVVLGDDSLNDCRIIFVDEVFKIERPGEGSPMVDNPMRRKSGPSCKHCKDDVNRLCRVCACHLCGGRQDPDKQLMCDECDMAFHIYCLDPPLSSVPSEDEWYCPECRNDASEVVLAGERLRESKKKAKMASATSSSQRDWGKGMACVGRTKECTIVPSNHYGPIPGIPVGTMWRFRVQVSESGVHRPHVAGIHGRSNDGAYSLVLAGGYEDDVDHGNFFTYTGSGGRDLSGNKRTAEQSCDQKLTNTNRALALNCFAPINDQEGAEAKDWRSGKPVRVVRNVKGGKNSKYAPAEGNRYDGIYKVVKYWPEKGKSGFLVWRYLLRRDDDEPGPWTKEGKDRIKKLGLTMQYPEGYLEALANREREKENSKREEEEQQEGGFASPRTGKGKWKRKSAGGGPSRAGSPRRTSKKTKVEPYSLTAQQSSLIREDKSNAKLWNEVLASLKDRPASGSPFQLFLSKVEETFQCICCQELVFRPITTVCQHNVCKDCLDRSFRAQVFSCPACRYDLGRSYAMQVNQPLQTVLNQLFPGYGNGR

[4] = molecular target: T1, recombinant mUHRF1 V2; assay: MST
[5] = molecular target: T2, recombinant mUHRF1 V1; assay: MST
[6] = molecular target: T3, recombinant hUHRF1; assay: MST

Kd [1]: 8100 nM
Kd [2]: 2600 nM
Kd [3]: 80 nM
Kd [4]: 4000 nM
Kd [5]: 1400 nM
Kd [6]: 1500 nM
Binder: ARTKQTARKSTGGKA (trimethyl-lysine at K9) [H3K9me3 peptide (titrated in MST)]
